Results on 2 molecules are retold here after article PMC12101283, “Validation and Optimization of PURE Ribosome Display for Screening Synthetic Nanobody Libraries” (Antibodies, 2025).

In assay [1] the target is T1, human fatty acid binding protein 4 (Homo sapiens, UniProt P15090).
T1 construct: The methods describe only the plasmid His-SUMO-hFABP4-(GGGGS)4-SBP; also called hFABP4; FABP4; source: E. coli BL21 (DE3), purified (Ni-NTA, SEC); not shown: His, N-terminal, cleaved; SUMO, N-terminal, cleaved
The experiment in a line: ITC; MicroCal PEAQ ITC, 25 °C, PBS, one binding site model; 50 µM F4_B6 in cell with 550 µM hFABP4 in syringe. The conditions noted are these: both partners purified. (In general: Isothermal titration calorimetry measures the heat released or taken up as one component is titrated into another.)

In assay [2] the target is T1, human fatty acid binding protein 4. Put plainly: pull-down; His-tagged nanobody captured from E. coli supernatant on Ni-NTA agarose and washed; 100 µL target protein solution (approximately 0.2 mg/mL) added; washes with PBS (10 mM imidazole in the 3rd); elution with 200 mM imidazole; SDS-PAGE. The conditions noted are these: both partners purified.

T1 sequence (P15090 whole entry): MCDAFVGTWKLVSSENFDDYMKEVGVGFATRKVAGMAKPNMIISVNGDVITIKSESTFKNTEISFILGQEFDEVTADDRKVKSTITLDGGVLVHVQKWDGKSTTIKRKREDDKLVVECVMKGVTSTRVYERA

B1: F4_B6 (VHH)
VHH: QVQLVESGGGLVQAGGSLRLSCAASGVDMHNFEMGWYRQAPGKEREFVAAIDDVQPLTYYADSVKGRFTISRDNAKNTVYLQMNSLKPEDTAVYYCAAVKGDFWSESNYWGQGTQVTVSS
notes: source: E. coli BL21; supernatant of lysed cells (ELISA; captured on Ni-NTA for the pull-down); purified (Ni-NTA, SEC) for SEC and ITC
In turn, B1 came in with a dissociation constant (Kd) in assay [1] of about 295 nM.

B2: F4_C9 (VHH)
VHH: QVQLVESGGGLVQAGGSLRLSCAASGPPFSFVFMGWYRQAPGKEREFVAAIFDFTDETYYADSVKGRFTISRDNAKNTVYLHMNSLKPEDTAVYYCAAARGLNYWNNVYWGQGTQVTVSS
notes: source: E. coli BL21; supernatant of lysed cells (ELISA; captured on Ni-NTA for the pull-down)
Consider B2, for which, in assay [2], the binding result was “binds”.

One may read the Kd as the free concentration of one partner at which half of the binding sites on the other are occupied at equilibrium, for simple one-to-one binding. The low end stands for higher affinity, the high end for lower affinity.
